Laboratory results as given in patent US20120178701A1 (PALATIN TECHNOLOGIES, published 2012).
Bridge positions count the residues as written; N and C are the ends. Square brackets hold non-standard residues; d marks the D form. Aad = N[C@@H](CCCC(=O)O)C(=O)O; Orn = NCCC[C@H](N)C(=O)O; Dab = NCC[C@H](N)C(=O)O

B1: Ac-Arg-cyclo(Lys-Asn-D-Phe-Arg-Nal 2-Asp)-NH2 (peptide)
peptide: RKNFRXD
HELM: PEPTIDE1{[ac].R.K.N.[dF].R.[O=C([C@H](Cc1ccc2ccccc2c1)N[*:1])[*:2]].D.[am]}$PEPTIDE1,PEPTIDE1,3:R3-8:R3$$$V2.0
SMILES: CC(=O)N[C@@H](CCCNC(=N)N)C(=O)N[C@H]1CCCCNC(=O)C[C@@H](C(N)=O)NC(=O)[C@H](Cc2ccc3ccccc3c2)NC(=O)[C@H](CCCNC(=N)N)NC(=O)[C@@H](Cc2ccccc2)NC(=O)[C@H](CC(N)=O)NC1=O
notes: also called peptide No. 162
B2: Ac-Arg-cyclo(Dab-Gln-D-Phe-Arg-Trp-hGlu)-NH2 (peptide)
peptide: RXQFRWX
modifications: N-acetyl; X2 = Dab; D-Phe 4; X7 = hGlu; side-chain lactam Dab2-hGlu7; C-terminal amide
notes: also called peptide No. 159
B3: Ac-Arg-cyclo(Asp-Gln-D-Phe-Arg-Trp-Lys)-NH2 (peptide)
peptide: Ac-RDQ[dF]RWK-NH2
modifications: lactam 2-7
notes: any difference is only in the drawings; also called peptide No. 32

Each binder was assayed against T1, human recombinant melanocortin-4 receptor (human, UniProt P32245 1-332) (assay: competitive inhibition of [I125]-NDP-α-MSH, hMC4-R HEK-293 membranes).
T1 construct: whole, on cells; cAMP assays used the whole cells; also called hMC4-R; MC4-R
T1 sequence (P32245 whole entry): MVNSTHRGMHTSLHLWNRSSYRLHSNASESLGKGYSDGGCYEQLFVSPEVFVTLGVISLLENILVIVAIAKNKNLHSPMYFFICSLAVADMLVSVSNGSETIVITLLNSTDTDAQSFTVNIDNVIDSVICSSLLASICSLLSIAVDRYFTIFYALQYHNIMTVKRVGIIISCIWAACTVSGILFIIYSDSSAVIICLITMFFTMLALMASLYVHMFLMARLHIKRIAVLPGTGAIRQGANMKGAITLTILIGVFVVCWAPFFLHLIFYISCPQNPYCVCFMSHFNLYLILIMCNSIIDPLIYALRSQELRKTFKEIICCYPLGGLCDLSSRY
Experimental: (§1) A competitive inhibition binding assay is performed using membrane homogenates prepared from HEK-293 cells that express recombinant hMC4-R, hMC3-R, or hMC5-R, and from B-16 mouse melanoma cells (containing endogenous MC1-R). In some instances, HEK-293 cells that express recombinant hMC1-R were employed. In the examples that follow, all MC3-R, MC4-R and MC5-R values are for human recombinant receptors. […] Membrane homogenates were incubated with 0.2 nM (for hMC4-R) 0.4 nM (for MC3-R and MC5-R) or 0.1 nM (for mouse B16 MC1-R or hMC1-R) [I¹²⁵]-NDP-α-MSH (Perkin Elmer) and increasing concentrations of test peptides of the present invention in buffer containing 25 mM HEPES buffer (pH 7.5) with 100 mM NaCl, 2 mM CaCl₂, 2 mM MgCl₂, 0.3 mM 1,10-phenanthroline, and 0.2% bovine serum albumin. After incubation for 60 minutes at 37° C., the assay mixture was filtered and the membranes washed three times with ice-cold buffer. Filters were dried and counted in a gamma counter for bound radioactivity. […] Maximal specific binding (100%) was defined as the difference in radioactivity (cpm) bound to cell membranes in the absence and presence of 1 μM NDP-α-MSH. […] Each assay was conducted in triplicate and the actual mean values are described, with results less than 0% reported as 0%. Ki values for test peptides of the present invention were determined using Graph-Pad Prism® curve-fitting software.
9.1 Peptides of the following structures were synthesized by the general methods described above, and averaged MC4-R Ki values for peptides were determined as indicated. […] Ki values marked “ND” were not determined.

Ki [nM]	Binder
6	Ac-REN[dF]RW[Orn]-NH2 (lactam 2-7, also called peptide No. 161) [Ac-Arg-cyclo(Glu-Asn-D-Phe-Arg-Trp-Orn)-NH2]
5	B1
5	Ac-RKN[dF]RWD-NH2 (lactam 2-7) [Ac-Arg-cyclo(Lys-Asn-D-Phe-Arg-Trp-Asp)-NH2]
4	B2
8	Ac-R[Aad]N[dF]RW[Dab]-NH2 (lactam 2-7, also called peptide No. 160) [Ac-Arg-cyclo(hGlu-Asn-D-Phe-Arg-Trp-Dab)-NH2]
45	Ac-[dR]DQ[dF]RWK-NH2 (lactam 2-7, also called peptide No. 71) [Ac-D-Arg-cyclo(Asp-Gln-D-Phe-Arg-Trp-Lys)-NH2]

What follows are binders tested against T2, human recombinant melanocortin-3 receptor (human, UniProt P41968 1-323) (assay: competitive binding vs [I125]-NDP-α-MSH).
T2 construct: whole, on cells; Membrane homogenates of HEK-293 cells expressing the receptor; also called hMC3-R; MC3-R
T2 sequence (P41968 whole entry): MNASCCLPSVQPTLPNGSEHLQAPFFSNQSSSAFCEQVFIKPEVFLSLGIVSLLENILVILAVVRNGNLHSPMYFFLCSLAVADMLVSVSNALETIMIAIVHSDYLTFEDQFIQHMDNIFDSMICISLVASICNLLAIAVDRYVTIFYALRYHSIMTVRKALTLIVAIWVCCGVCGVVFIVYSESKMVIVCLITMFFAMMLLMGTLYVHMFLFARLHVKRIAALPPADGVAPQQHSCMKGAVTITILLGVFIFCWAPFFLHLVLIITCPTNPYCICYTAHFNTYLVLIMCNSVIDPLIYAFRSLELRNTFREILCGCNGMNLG
Experimental: (§2) After incubation for 60 minutes at 37° C., the assay mixture was filtered and the membranes washed three times with ice-cold buffer. Filters were dried and counted in a gamma counter for bound radioactivity. […] Maximal specific binding (100%) was defined as the difference in radioactivity (cpm) bound to cell membranes in the absence and presence of 1 μM NDP-α-MSH. […] Each assay was conducted in triplicate and the actual mean values are described, with results less than 0% reported as 0%. Ki values for test peptides of the present invention were determined using Graph-Pad Prism® curve-fitting software.

Ki [nM]	Binder
340	B3

The binders below were run against T3, endogenous MC1-R of B-16 mouse melanoma cells (mouse, UniProt Q01727 1-315) (assay: competitive binding vs [I125]-NDP-α-MSH).
T3 construct: whole, on cells; membrane homogenates; also called mouse B16 MC1-R
T3 sequence (Q01727 whole entry): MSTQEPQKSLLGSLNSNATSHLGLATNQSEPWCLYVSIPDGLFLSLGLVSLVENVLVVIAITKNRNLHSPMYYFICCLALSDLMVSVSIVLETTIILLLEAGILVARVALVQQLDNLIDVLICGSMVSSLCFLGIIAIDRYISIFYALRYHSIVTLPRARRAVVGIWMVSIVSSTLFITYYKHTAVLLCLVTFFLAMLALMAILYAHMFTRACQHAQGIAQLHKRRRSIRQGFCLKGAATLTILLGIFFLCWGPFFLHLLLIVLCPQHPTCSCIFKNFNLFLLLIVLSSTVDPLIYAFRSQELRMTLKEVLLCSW
Experimental: as §2

Ki [nM]	Binder
3	Ac-RDH[dF]RWK-NH2 (lactam 2-7, also called peptide No. 1) [Ac-Arg-cyclo(Asp-His-D-Phe-Arg-Trp-Lys)-NH2]
133	B3

The binders below were run against T2, human recombinant melanocortin-3 … (assay: competitive binding vs Eu-labeled NDP-α-MSH).

Ki [nM]	Binder
103	Ac-RDH[dF]RWK-NH2 (lactam 2-7, also called peptide No. 1) [Ac-Arg-cyclo(Asp-His-D-Phe-Arg-Trp-Lys)-NH2]
1060	Ac-RDV[dF]RWK-NH2 (lactam 2-7, also called peptide No. 16) [Ac-Arg-cyclo(Asp-Val-D-Phe-Arg-Trp-Lys)-NH2]

The binders below were run against T3, endogenous MC1-R of B-16 mouse melanoma … (assay: competitive binding vs Eu-labeled NDP-α-MSH).

Ki [nM]	Binder
4	Ac-RDH[dF]RWK-NH2 (lactam 2-7, also called peptide No. 1) [Ac-Arg-cyclo(Asp-His-D-Phe-Arg-Trp-Lys)-NH2]
673	B3
323	Ac-RDV[dF]RWK-NH2 (lactam 2-7, also called peptide No. 16) [Ac-Arg-cyclo(Asp-Val-D-Phe-Arg-Trp-Lys)-NH2]

Each binder was assayed against T4, human recombinant melanocortin-1 receptor (human, UniProt Q01726 1-317) (assay: cell-based or functional assay).
T4 sequence (Q01726 whole entry): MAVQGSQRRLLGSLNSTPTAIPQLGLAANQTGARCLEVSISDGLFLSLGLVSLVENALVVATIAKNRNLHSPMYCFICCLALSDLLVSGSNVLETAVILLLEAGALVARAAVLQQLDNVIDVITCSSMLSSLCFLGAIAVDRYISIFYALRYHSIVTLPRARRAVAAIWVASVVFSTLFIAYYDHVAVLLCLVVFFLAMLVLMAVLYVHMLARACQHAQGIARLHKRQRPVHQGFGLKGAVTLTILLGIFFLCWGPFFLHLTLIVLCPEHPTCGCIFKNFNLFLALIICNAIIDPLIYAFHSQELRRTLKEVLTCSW

hMC1-R EC50 [nM]	hMC1-R Emax (%)	Binder
13	85	Ac-REN[dF]RW[Orn]-NH2 (lactam 2-7, also called peptide No. 161) [Ac-Arg-cyclo(Glu-Asn-D-Phe-Arg-Trp-Orn)-NH2]
22	89	B1
25		Ac-R[Orn]N[dF]RWE-NH2 (lactam 2-7, also called peptide No. 154) [Ac-Arg-cyclo(Orn-Asn-D-Phe-Arg-Trp-Glu)-NH2]
80	81	Ac-[dR][Orn]N[dF]RWE-NH2 (lactam 2-7, also called peptide No. 156) [Ac-D-Arg-cyclo(Orn-Asn-D-Phe-Arg-Trp-Glu)-NH2]
14	91	Ac-RKN[dF]RWD-NH2 (lactam 2-7) [Ac-Arg-cyclo(Lys-Asn-D-Phe-Arg-Trp-Asp)-NH2]
26	98	B2
	88	Ac-[dR]DQ[dF]RWK-NH2 (lactam 2-7, also called peptide No. 71) [Ac-D-Arg-cyclo(Asp-Gln-D-Phe-Arg-Trp-Lys)-NH2]

The binders below were run against T1, human recombinant melanocortin-4 … (assay: cell-based or functional assay).

hMC4-R EC50 [nM]	hMC4-R Emax (%)	Binder
0.413	91	Ac-REN[dF]RW[Orn]-NH2 (lactam 2-7, also called peptide No. 161) [Ac-Arg-cyclo(Glu-Asn-D-Phe-Arg-Trp-Orn)-NH2]
0.85	82	B1
0.189	97	Ac-RKN[dF]RWD-NH2 (lactam 2-7) [Ac-Arg-cyclo(Lys-Asn-D-Phe-Arg-Trp-Asp)-NH2]
0.825	99	B2
0.245	98	Ac-R[Aad]N[dF]RW[Dab]-NH2 (lactam 2-7, also called peptide No. 160) [Ac-Arg-cyclo(hGlu-Asn-D-Phe-Arg-Trp-Dab)-NH2]
2	89	Ac-[dR]DQ[dF]RWK-NH2 (lactam 2-7, also called peptide No. 71) [Ac-D-Arg-cyclo(Asp-Gln-D-Phe-Arg-Trp-Lys)-NH2]

These binders were tested against T1, human recombinant melanocortin-4 … (assay: competitive inhibition of labelled NDP-α-MSH, hMC4-R membranes).

Ki [nM]	Binder
6	Ac-REN[dF]RW[Orn]-NH2 (lactam 2-7, also called peptide No. 161) [Ac-Arg-cyclo(Glu-Asn-D-Phe-Arg-Trp-Orn)-NH2]
5	B1
5	Ac-RKN[dF]RWD-NH2 (lactam 2-7) [Ac-Arg-cyclo(Lys-Asn-D-Phe-Arg-Trp-Asp)-NH2]
4	B2
8	Ac-R[Aad]N[dF]RW[Dab]-NH2 (lactam 2-7, also called peptide No. 160) [Ac-Arg-cyclo(hGlu-Asn-D-Phe-Arg-Trp-Dab)-NH2]
45	Ac-[dR]DQ[dF]RWK-NH2 (lactam 2-7, also called peptide No. 71) [Ac-D-Arg-cyclo(Asp-Gln-D-Phe-Arg-Trp-Lys)-NH2]

Molecular target: T1, human recombinant melanocortin-4 …
Assay: cell-based or functional assay
Remark: another data set of the same source

intrinsic activity (cAMP; NDP-α-MSH = 100%) [%]	EC50 (cAMP) [nM]	Binder
95		Ac-R[Dab]H[dF]RW[Aad]-NH2 (lactam 2-7) [Ac-Arg-cyclo(Dab-His-D-Phe-Arg-Trp-hGlu)-NH2]
91		Ac-RDH[dF]RWK-NH2 (lactam 2-7, also called peptide No. 1) [Ac-Arg-cyclo(Asp-His-D-Phe-Arg-Trp-Lys)-NH2]
98	17	B3
42		Ac-RDV[dF]RWK-NH2 (lactam 2-7, also called peptide No. 16) [Ac-Arg-cyclo(Asp-Val-D-Phe-Arg-Trp-Lys)-NH2]

These binders were tested against T1, human recombinant melanocortin-4 … (assay: ratio of Ki values, hMC1-R as reference).

binding selectivity, MC4-R against MC1-R [fold]	Binder
≥ 20	Ac-REN[dF]RW[Orn]-NH2 (lactam 2-7, also called peptide No. 161) [Ac-Arg-cyclo(Glu-Asn-D-Phe-Arg-Trp-Orn)-NH2]
≥ 20	B1
≥ 20	Ac-RKN[dF]RWD-NH2 (lactam 2-7) [Ac-Arg-cyclo(Lys-Asn-D-Phe-Arg-Trp-Asp)-NH2]
≥ 20	B2

The binders below were run against T4, human recombinant melanocortin-1 … (assay: competitive inhibition of labelled NDP-α-MSH, hMC1-R membranes).
Experimental: as §1

Ki [nM]	Binder
155	Ac-REN[dF]RW[Orn]-NH2 (lactam 2-7, also called peptide No. 161) [Ac-Arg-cyclo(Glu-Asn-D-Phe-Arg-Trp-Orn)-NH2]
255	B1
688	Ac-R[Orn]N[dF]RWE-NH2 (lactam 2-7, also called peptide No. 154) [Ac-Arg-cyclo(Orn-Asn-D-Phe-Arg-Trp-Glu)-NH2]
840	Ac-[dR][Orn]N[dF]RWE-NH2 (lactam 2-7, also called peptide No. 156) [Ac-D-Arg-cyclo(Orn-Asn-D-Phe-Arg-Trp-Glu)-NH2]
240	Ac-RKN[dF]RWD-NH2 (lactam 2-7) [Ac-Arg-cyclo(Lys-Asn-D-Phe-Arg-Trp-Asp)-NH2]
133	B2
295	Ac-R[Aad]N[dF]RW[Dab]-NH2 (lactam 2-7, also called peptide No. 160) [Ac-Arg-cyclo(hGlu-Asn-D-Phe-Arg-Trp-Dab)-NH2]
